The target of assay [1] is SIINFEKL-specific TCR on CD8+ T-cells of OT-I transgenic mice. In words: flow cytometry, dextramer staining of OT-I activated CD8+ T-cells.
The target in assay [2] is OVA peptide SIINFEKL-MHC complex (OVA257-264 presented in the context of MHC class I H-2K^b) on tumor cells (chicken). Put plainly: cell-based or functional assay.

In assay [1], “H-2 Kb SIINFEKL-APC conjugated dextramer (Immudex) (from UniProt P01901 22-369) (peptide-MHC)” yielded a percent of cells positive of 100%.

On to “T-cell receptor (TCR) of the T-cell hybridoma B3Z86/90.14 (B3Z)”, for which, in assay [2], the IL-2 (pg/ml) from B3Z T-cells; B16F10 tumor cells, OVA 0.25 mg/ml came out at 22 pg/mL; the IL-2 (pg/ml) from B3Z T-cells; B16F10 tumor cells, OVA 0.5 mg/ml came to 76 pg/mL; the IL-2 (pg/ml) from B3Z T-cells; B16F10 tumor cells, OVA 1.0 mg/ml came out at 323 pg/mL; the IL-2 (pg/ml) from B3Z T-cells; B16F10 tumor cells, OVA 2.5 mg/ml came out at 589 pg/mL. Moreover, in assay [2], the IL-2 (pg/ml) from B3Z T-cells; KP LUN31 tumor cells, OVA 0.125 mg/ml worked out at 22 pg/mL; the IL-2 (pg/ml) from B3Z T-cells; KP LUN31 tumor cells, OVA 0.25 mg/ml was found to be 68 pg/mL; the IL-2 (pg/ml) from B3Z T-cells; KP LUN31 tumor cells, OVA 0.5 mg/ml amounted to 247 pg/mL; the IL-2 (pg/ml) from B3Z T-cells; KP LUN31 tumor cells, OVA 1.0 mg/ml is 483 pg/mL. In assay [2], this substance returned an IL-2 (pg/ml) from B3Z T-cells; KP LUN31 tumor cells, OVA 2.5 mg/ml of 913 pg/mL; an IL-2 (pg/ml) from B3Z T-cells; LL2 tumor cells, OVA 2.5 mg/ml of 11 pg/mL; an IL-2 (pg/ml) from B3Z T-cells; LL2 tumor cells, OVA 5.0 mg/ml of 26 pg/mL; an IL-2 (pg/ml) from B3Z T-cells; LL2 tumor cells, OVA 10 mg/ml of 33 pg/mL. In assay [2], this substance showed an IL-2 (pg/ml) from B3Z T-cells; MC38 tumor cells, OVA 2.5 mg/ml of 54 pg/mL; an IL-2 (pg/ml) from B3Z T-cells; MC38 tumor cells, OVA 5.0 mg/ml of 138 pg/mL; an IL-2 (pg/ml) from B3Z T-cells; MC38 tumor cells, OVA 10 mg/ml of 338 pg/mL.

Values taken from patent publication US20190048094A1.
